Experimental data taken from patent US20210095032A1 (SALUBRIS CHENGDU BIOTECH, published 2021).
Read-outs that look alike come from different tables or passages of the source.

Tests used:
Test in all cases: capture ELISA, antibody captured on plate, biotin-labeled human PD-1 Fc in solution
[1] = biological target: T1, biotin-labeled human PD-1 Fc protein (human, biotin-labeled (site not stated))
T1 construct: also called PD-1-Fc-biotin
Description: (§1) Plates were washed 4 times with wash buffer (PBS+0.05% Tween-20, PBST) and then blocked with 200 μl/well blocking buffer (5% w/v non-fatty milk in PBST) for 2 hours at 37° C. […] After a final wash, plates were incubated with 100 μl/well ELISA substrate TMB (Innoreagents). The reaction was stopped in 15 minutes at 25° C. with 50 μl/well 1M H₂SO₄, and the absorbance was read at 450 nm. Data were analyzed using Graphpad Prism software and EC₅₀ values were reported.

[2] = biological target: T1, biotin-labeled human PD-1 Fc protein; remark: listed apart in the source
Description: as §1

[3] = biological target: T1, biotin-labeled human PD-1 Fc protein; remark: listed apart in the source
Description: as §1

[4] = biological target: T1, biotin-labeled human PD-1 Fc protein; remark: listed apart in the source
Description: as §1

T1 sequence (chain, as listed by the source limits assumed): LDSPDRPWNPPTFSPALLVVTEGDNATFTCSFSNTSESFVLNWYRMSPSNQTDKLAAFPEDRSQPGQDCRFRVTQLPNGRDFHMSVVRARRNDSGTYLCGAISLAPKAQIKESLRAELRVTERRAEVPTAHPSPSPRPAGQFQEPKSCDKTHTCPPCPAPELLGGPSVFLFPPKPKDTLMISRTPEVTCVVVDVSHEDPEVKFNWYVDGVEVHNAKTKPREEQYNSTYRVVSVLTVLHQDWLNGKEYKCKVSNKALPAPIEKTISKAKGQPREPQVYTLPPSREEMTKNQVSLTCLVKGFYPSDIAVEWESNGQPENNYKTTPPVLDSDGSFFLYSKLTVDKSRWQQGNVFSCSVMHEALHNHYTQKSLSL

B1: huD2A4-V1 (antibody, human IgG1, kappa)
heavy: not shown
light: DIQMTQSPSSVSASVGDRVTITCLASQTIGTWLAWYQQKPGKSPKLLIYAATSLADGVPSRFSGSGSGTDFTLTISSLQPEDFATYYCQQVSSIPWTFGGGTKVEIKRTVAAPSVFIFPPSDEQLKSGTASVVCLLNNFYPREAKVQWKVDNALQSGNSQESVTEQDSKDSTYSLSSTLTLSKADYEKHKVYACEVTHQGLSSPVTKSFNRGEC
notes: Humanized D2A4, human IgG1/kappa
[1]
  EC50: 0.385 ng/mL

B2: huD2A4-V2 (antibody, human IgG1, kappa)
heavy: not shown
light: DIQMTQSPSSVSASVGDRVTITCLASQTIGTWLAWYQQKPGKSPKLLIYAATSLADGVPSRFSGSGSGTDFTLTISSLQPEDFATYYCQQVSSIPWTFGGGTKVEIKRTVAAPSVFIFPPSDEQLKSGTASVVCLLNNFYPREAKVQWKVDNALQSGNSQESVTEQDSKDSTYSLSSTLTLSKADYEKHKVYACEVTHQGLSSPVTKSFNRGEC
notes: as for B1
[1]
  EC50: 0.379 ng/mL

B3: huD2A4-V4 (antibody, human IgG1, kappa, V domains shown)
VH: EVQLVESGGGLVQPGGSLRLSCAASGFTFSSYTMSWVRQAPGKGLEWVATISGGGSNTYYPDSVKGRFTISRDNSKNTLYLQMNSLRAEDTAVYYCARQAFYSNYWYFDVWGAGTTVTVSS
VL: DIQMTQSPSSVSASVGDRVTITCLASQTIGTWLAWYQQKPGKAPKLLIYAATSLADGVPSRFSGSGSGTDFTLTISSLQPEDFATYYCQQVSSIPWTFGGGTKVEIKR
notes: as for B1
[1]
  EC50: 0.349 ng/mL

B4: huD2A4-V3 (antibody, human IgG1, kappa)
heavy: not shown
light: DIQMTQSPSSVSASVGDRVTITCLASQTIGTWLAWYQQKPGKSPKLLIYAATSLADGVPSRFSGSGSGTDFTLTISSLQPEDFATYYCQQVSSIPWTFGGGTKVEIKRTVAAPSVFIFPPSDEQLKSGTASVVCLLNNFYPREAKVQWKVDNALQSGNSQESVTEQDSKDSTYSLSSTLTLSKADYEKHKVYACEVTHQGLSSPVTKSFNRGEC
notes: as for B1
[1]
  EC50: 0.55 ng/mL

B5: huD2H3-V1 (antibody, human IgG1, kappa)
heavy: not shown
light: DIVLTQSPDSLAVSLGERATINCRASESVSLHGTRLMHWYQQKPGQPPKLLISLGSNLESGVPDRFSGSGSETDFTLTISSLQAEDVAVYFCQQSIEDPWTFGQGTKLEIKRTVAAPSVFIFPPSDEQLKSGTASVVCLLNNFYPREAKVQWKVDNALQSGNSQESVTEQDSKDSTYSLSSTLTLSKADYEKHKVYACEVTHQGLSSPVTKSFNRGEC
notes: Humanized D2H3, human IgG1/kappa
[2]
  EC50: 0.28 ng/mL

B6: huD2H3-V4 (antibody, human IgG1, kappa, V domains shown)
VH: EVQLVQSGAEVKKPGSSVKVSCKSSGYTFTNYWMHWVRQAPGQGLEWIGAIFPRNSETNYNQKFKARVTLTADTSTSTAYMELSSLRSEDTAVYFCTRNRYGLDYWGQGTLVTVSS
VL: DIVLTQSPDSLAVSLGERATINCRASESVSLHGTRLMHWYQQKPGQPPKLLISLGSNLESGVPDRFSGSGSETDFTLTISSLQAEDVAVYFCQQSIEDPWTFGQGTKLEIKR
notes: as for B5
[2]
  EC50: 0.28 ng/mL

B7: huD2H3-V7 (antibody, human IgG1, kappa, V domains shown)
VH: EVQLVQSGAEVKKPGSSVKVSCKSSGYTFTNYWMHWVRQAPGQGLEWIGAIFPRNSETNYNQKFKARATLTADTSTSTAYMELSSLRSEDTAVYYCTRNRYGLDYWGQGTLVTVSS
VL: DIVLTQSPDSLAVSLGERATINCRASESVSLHGTRLMHWYQQKPGQPPKLLISLGSNLESGVPDRFSGSGSETDFTLTISSLQAEDVAVYFCQQSIEDPWTFGQGTKLEIKR
notes: as for B5
[3]
  EC50: 0.157 ng/mL

B8: huD2H3-V8 (antibody, human IgG1, kappa)
heavy: not shown
light: DIVMTQSPDSLAVSLGERATINCRASESVSLHGTRLMHWYQQKPGQPPKLLISLGSNLESGVPDRFSGSGSETDFTLTISSLQAEDVAVYFCQQSIEDPWTFGQGTKLEIKRTVAAPSVFIFPPSDEQLKSGTASVVCLLNNFYPREAKVQWKVDNALQSGNSQESVTEQDSKDSTYSLSSTLTLSKADYEKHKVYACEVTHQGLSSPVTKSFNRGEC
notes: as for B5
[3]
  EC50: 0.171 ng/mL

B9: huD2H3-V5 (antibody, human IgG1, kappa, V domains shown)
VH: EVQLVQSGAEVKKPGSSVKVSCKSSGYTFTNYWMHWVRQAPGQGLEWIGAIFPRNSETNYNQKFKARATITADTSTSTAYMELSSLRSEDTAVYFCTRNRYGLDYWGQGTLVTVSS
VL: DIVLTQSPDSLAVSLGERATINCRASESVSLHGTRLMHWYQQKPGQPPKLLISLGSNLESGVPDRFSGSGSETDFTLTISSLQAEDVAVYFCQQSIEDPWTFGQGTKLEIKR
notes: as for B5
[2]
  EC50: 0.32 ng/mL

B10: huD2H3-V12 (antibody, human IgG1, kappa, V domains shown)
VH: EVQLVQSGAEVKKPGSSVKVSCKASGYTFTNYWMHWVRQAPGQGLEWMGAIFPRNSETNYNQKFKARVTITADESTSTAYMELSSLRSEDTAVYYCTRNRYGLDYWGQGTLVTVSS
VL: DIVLTQSPDSLAVSLGERATINCRASESVSLHGTRLMHWYQQKPGQPPKLLISLGSNLESGVPDRFSGSGSETDFTLTISSLQAEDVAVYFCQQSIEDPWTFGQGTKLEIKR
notes: Humanized D2H3, human IgG1/kappa; also called huPD1-D2H3-V12
[4]
  EC50: 0.354 ng/mL

B11: huD2H3-V2 (antibody, human IgG1, kappa, V domains shown)
VH: EVQLVQSGAEVKKPGSSVKVSCKASGYTFTNYWMHWVRQAPGQGLEWIGAIFPRNSETNYNQKFKARATLTADTSTSTAYMELSSLRSEDTAVYFCTRNRYGLDYWGQGTLVTVSS
VL: DIVLTQSPDSLAVSLGERATINCRASESVSLHGTRLMHWYQQKPGQPPKLLISLGSNLESGVPDRFSGSGSETDFTLTISSLQAEDVAVYFCQQSIEDPWTFGQGTKLEIKR
notes: as for B5
[2]
  EC50: 0.21 ng/mL

B12: huD2H3-V9 (antibody, human IgG1, kappa, V domains shown)
VH: EVQLVQSGAEVKKPGSSVKVSCKSSGYTFTNYWMHWVRQAPGQGLEWIGAIFPRNSETNYNQKFKARATLTADTSTSTAYMELSSLRSEDTAVYFCTRNRYGLDYWGQGTLVTVSS
VL: DIVLTQSPDSLAVSLGERATINCRASESVSLHGTRLMHWYQQKPGQPPKLLIYLGSNLESGVPDRFSGSGSETDFTLTISSLQAEDVAVYFCQQSIEDPWTFGQGTKLEIKR
notes: as for B5
[3]
  EC50: 0.358 ng/mL

B13: huD2H3-V10 (antibody, human IgG1, kappa, V domains shown)
VH: EVQLVQSGAEVKKPGSSVKVSCKSSGYTFTNYWMHWVRQAPGQGLEWIGAIFPRNSETNYNQKFKARATLTADTSTSTAYMELSSLRSEDTAVYFCTRNRYGLDYWGQGTLVTVSS
VL: DIVLTQSPDSLAVSLGERATINCRASESVSLHGTRLMHWYQQKPGQPPKLLISLGSNLESGVPDRFSGSGSGTDFTLTISSLQAEDVAVYFCQQSIEDPWTFGQGTKLEIKR
notes: as for B5
[3]
  EC50: 0.505 ng/mL

B14: huD2H3-V11 (antibody, human IgG1, kappa, V domains shown)
VH: EVQLVQSGAEVKKPGSSVKVSCKSSGYTFTNYWMHWVRQAPGQGLEWIGAIFPRNSETNYNQKFKARATLTADTSTSTAYMELSSLRSEDTAVYFCTRNRYGLDYWGQGTLVTVSS
VL: DIVLTQSPDSLAVSLGERATINCRASESVSLHGTRLMHWYQQKPGQPPKLLISLGSNLESGVPDRFSGSGSETDFTLTISSLQAEDVAVYYCQQSIEDPWTFGQGTKLEIKR
notes: as for B5
[3]
  EC50: 0.17 ng/mL

B15: huD2H3-V3 (antibody, human IgG1, kappa, V domains shown)
VH: EVQLVQSGAEVKKPGSSVKVSCKSSGYTFTNYWMHWVRQAPGQGLEWMGAIFPRNSETNYNQKFKARATLTADTSTSTAYMELSSLRSEDTAVYFCTRNRYGLDYWGQGTLVTVSS
VL: DIVLTQSPDSLAVSLGERATINCRASESVSLHGTRLMHWYQQKPGQPPKLLISLGSNLESGVPDRFSGSGSETDFTLTISSLQAEDVAVYFCQQSIEDPWTFGQGTKLEIKR
notes: as for B5
[2]
  EC50: 0.19 ng/mL

B16: huD2H3-V6 (antibody, human IgG1, kappa, V domains shown)
VH: EVQLVQSGAEVKKPGSSVKVSCKSSGYTFTNYWMHWVRQAPGQGLEWIGAIFPRNSETNYNQKFKARATLTADESTSTAYMELSSLRSEDTAVYFCTRNRYGLDYWGQGTLVTVSS
VL: DIVLTQSPDSLAVSLGERATINCRASESVSLHGTRLMHWYQQKPGQPPKLLISLGSNLESGVPDRFSGSGSETDFTLTISSLQAEDVAVYFCQQSIEDPWTFGQGTKLEIKR
notes: as for B5
[2]
  EC50: 0.17 ng/mL
